Experiments:
Experiment in all cases: cell-based or functional assay
[1] = biological target: MuLV envelope (negative control pseudovirus) (MuLV)
[2] = biological target: 1012_11_TC21_3257 Env pseudovirus (HIV-1)
[3] = biological target: 1056_10_TA11_1826 Env pseudovirus (HIV-1)
[4] = biological target: 1394C9G1(Rev-) Env pseudovirus (HIV-1)
[5] = biological target: 191955_A11 Env pseudovirus (HIV-1)
[6] = biological target: 263-8 Env pseudovirus (HIV-1)
[7] = biological target: 6535.3 Env pseudovirus (HIV-1)
[8] = biological target: 7030102001E5(Rev-) Env pseudovirus (HIV-1)
[9] = biological target: 9004SS_A3_4 Env pseudovirus (HIV-1)
[10] = biological target: 928-28 Env pseudovirus (HIV-1)
[11] = biological target: AC10.0.29 Env pseudovirus (HIV-1)
[12] = biological target: BF1266.431a Env pseudovirus (HIV-1)
[13] = biological target: CAAN5342.A2 Env pseudovirus (HIV-1)
[14] = biological target: CNE17 Env pseudovirus (HIV-1)
[15] = biological target: CNE19 Env pseudovirus (HIV-1)
[16] = biological target: Ce0393_C3 Env pseudovirus (HIV-1)
[17] = biological target: Ce0682_E4 Env pseudovirus (HIV-1)
[18] = biological target: Ce1086_B2 Env pseudovirus (HIV-1)
[19] = biological target: Ce1172_H1 Env pseudovirus (HIV-1)
[20] = biological target: Ce1176_A3 Env pseudovirus (HIV-1)
[21] = biological target: Ce2010_F5 Env pseudovirus (HIV-1)
[22] = biological target: Ce703010054_2A2 Env pseudovirus (HIV-1)
[23] = biological target: Du156.12 Env pseudovirus (HIV-1)
[24] = biological target: Du172.17 Env pseudovirus (HIV-1)
[25] = biological target: HIV-0013095-2.11 Env pseudovirus (HIV-1)
[26] = biological target: HIV-001428-2.42 Env pseudovirus (HIV-1)
[27] = biological target: HIV-16055-2.3 Env pseudovirus (HIV-1)
[28] = biological target: HIV-16845-2.22 Env pseudovirus (HIV-1)
[29] = biological target: PVO.4 Env pseudovirus (HIV-1)
[30] = biological target: Q259.d2.17 Env pseudovirus (HIV-1)
[31] = biological target: Q461.e2 Env pseudovirus (HIV-1)
[32] = biological target: Q842.d12 Env pseudovirus (HIV-1)
[33] = biological target: REJO4541.67 Env pseudovirus (HIV-1)
[34] = biological target: RHPA4259.7 Env pseudovirus (HIV-1)
[35] = biological target: SC05_8C11_2344 Env pseudovirus (HIV-1)
[36] = biological target: THRO4156.18 Env pseudovirus (HIV-1)
[37] = biological target: TRJO4551.58 Env pseudovirus (HIV-1)
[38] = biological target: TRO.11 Env pseudovirus (HIV-1)
[39] = biological target: WITO4160.33 Env pseudovirus (HIV-1)
[40] = biological target: ZM135M.PL10a Env pseudovirus (HIV-1)
[41] = biological target: ZM197M.PB7 Env pseudovirus (HIV-1)
[42] = biological target: ZM233M.PB6 Env pseudovirus (HIV-1)
[43] = biological target: ZM53M.PB12 Env pseudovirus (HIV-1)
[44] = biological target: HIV-1 Env pseudovirus 263-8 (HIV-1)
[45] = biological target: HIV-1 Env pseudovirus 3415.v1.c1 (HIV-1)

N49P7 (antibody)
IC50 (neutralisation, TZM.bl cells) [1]: > 50 µg/mL | IC80 (neutralisation, TZM.bl cells) [1]: > 50 µg/mL | MPI [1]: 9

N49P7.1 (antibody)
IC50 (neutralisation, TZM.bl cells) [1]: > 50 µg/mL | IC80 (neutralisation, TZM.bl cells) [1]: > 50 µg/mL | MPI [1]: 4

PGT121 (antibody)
IC50 [2]: 0.003 µg/mL | IC80 [2]: 0.017 µg/mL | IC50 [3]: 0.004 µg/mL | IC80 [3]: 0.081 µg/mL | IC50 [4]: 0.264 µg/mL | IC80 [4]: 1.95 µg/mL | IC50 [5]: > 50 µg/mL | IC80 [5]: > 50 µg/mL | IC50 [6]: 0.648 µg/mL | IC80 [6]: 3.96 µg/mL | IC50 [7]: 0.002 µg/mL | IC80 [7]: 0.008 µg/mL | IC50 [8]: 0.009 µg/mL | IC80 [8]: 0.027 µg/mL | IC50 [9]: < 0.001 µg/mL | IC80 [9]: 0.003 µg/mL | IC50 [10]: 44.2 µg/mL | IC80 [10]: > 50 µg/mL | IC50 [11]: 0.024 µg/mL | IC80 [11]: 0.073 µg/mL | IC50 [12]: > 50 µg/mL | IC80 [12]: > 50 µg/mL | IC50 [13]: 0.007 µg/mL | IC80 [13]: 0.023 µg/mL | IC50 [14]: 7.6 µg/mL | IC80 [14]: > 50 µg/mL | IC50 [15]: 0.008 µg/mL | IC80 [15]: 0.105 µg/mL | IC50 [16]: > 50 µg/mL | IC80 [16]: > 50 µg/mL | IC50 [17]: > 50 µg/mL | IC80 [17]: > 50 µg/mL | IC50 [18]: < 0.001 µg/mL | IC80 [18]: < 0.001 µg/mL | IC80 [19]: 0.036 µg/mL | IC50 [20]: 0.013 µg/mL | IC80 [20]: 0.035 µg/mL | IC50 [21]: > 50 µg/mL | IC80 [21]: > 50 µg/mL | IC50 [22]: > 50 µg/mL | IC80 [22]: > 50 µg/mL | IC50 [23]: 0.004 µg/mL | IC80 [23]: 0.017 µg/mL | IC50 [24]: 0.033 µg/mL | IC80 [24]: 0.257 µg/mL | IC50 [25]: > 50 µg/mL | IC80 [25]: > 50 µg/mL | IC50 [26]: 0.014 µg/mL | IC80 [26]: 0.051 µg/mL | IC50 [27]: 0.153 µg/mL | IC80 [27]: 4.8 µg/mL | IC50 [28]: 3.97 µg/mL | IC80 [28]: 44.6 µg/mL | IC50 [29]: 0.098 µg/mL | IC80 [29]: 0.343 µg/mL | IC50 [30]: 15.4 µg/mL | IC80 [30]: > 50 µg/mL | IC50 [31]: > 50 µg/mL | IC80 [31]: > 50 µg/mL | IC50 [32]: 0.005 µg/mL | IC50 [33]: 4.77 µg/mL | IC80 [33]: > 50 µg/mL | IC80 [34]: 0.035 µg/mL | IC50 [35]: 0.019 µg/mL | IC80 [35]: 0.071 µg/mL | IC50 [36]: > 50 µg/mL | IC80 [36]: > 50 µg/mL | IC50 [37]: 1.31 µg/mL | IC80 [37]: 37.9 µg/mL | IC50 [38]: 0.005 µg/mL | IC80 [38]: 0.025 µg/mL | IC50 [39]: 0.334 µg/mL | IC80 [39]: 2.35 µg/mL | IC50 [40]: 0.716 µg/mL | IC80 [40]: 5.25 µg/mL | IC50 [41]: > 50 µg/mL | IC80 [41]: > 50 µg/mL | IC50 [42]: 3.69 µg/mL | IC50 [43]: < 0.001 µg/mL | IC80 [43]: 0.004 µg/mL

VRC01 (antibody)
IC50 (Titer in TZM.bl cells) [44]: 0.2 µg/mL | IC80 (Titer in TZM.bl cells) [44]: 0.55 µg/mL | IC50 (Titer in TZM.bl cells) [45]: 0.06 µg/mL | IC80 (Titer in TZM.bl cells) [45]: 0.15 µg/mL
